Measured values as given in US20230279079A1 (CHANG GUNG MEMORIAL HOSPITAL LINKOU, published 2023).
Where a chain is given by its changes, count along the chain named.

Assays:
[1] = target: T1, SARS-CoV-2 nucleocapsid protein (SARS-CoV-2, UniProt P0DTC9 1-419); test: ELISA on recombinant protein
T1 construct: also called N protein

[2] = target: T2, MERS spike extracellular domain (Middle East respiratory syndrome …, UniProt K9N5Q8 18-1296); test: ELISA
T2 construct: extracellular domain

[3] = target: T3, Human coronavirus OC43 spike extracellular domain (human coronavirus OC43, UniProt P36334 14-1297); test: ELISA
T3 construct: extracellular domain

[4] = target: T4, SARS-CoV-2 spike S2 subunit (SARS-CoV-2, UniProt P0DTC2 686-1213); test: ELISA
T4 construct: domain: S2 subunit

SARS spike S1 subunit = target: T5, SARS spike S1 subunit (severe acute respiratory syndrome …, UniProt P59594 14-667); test: ELISA
T5 construct: domain: S1 subunit

B1: FD 4C (antibody, V domains shown)
VH: EVQLVESGPGLVKPSQTLSLTCTVSGGSISSGGYYWSWIRQHPGKGLEWIGYIYYSGSTYYNPSLKSRVTISVDTSKNQFSLKLSSVTAADTAVYYCARVRSSSSWYFDYWGQGTLVTVSS
VL: QSVLTQPASVSGSPGQSITISCTGTSSDVGGYNYVSWYQQHPGKAPKLMIYDVSKRPSGVSNRFSGSKSGNTASLTISGLQAEDEADYYCSSYTSKWVFGGGTKLTVL
- binding result [1]: binds

B2: EY 12A (antibody, V domains shown)
VH: EVQLVESGPGLVKPSQTLSLTCAVSGGSISSGGYYWSWIRQPPGKGLELIGYTDYTGKTLYNPSLKSRLTISVDTSKNQFSLKLRSVTAADTAVYYCARGMTQDDILTGFNRPHWYFDLWGRGSLVTVSS
VL: QSVLTQPPSVSGAPGQRVTISCTGSSSNIGAGYDVHWYQQLPGTAPKVVIYRNMNRPSGVPDRFSGSKSGTSASLAITGLQAEDEADYYCQSFDSSLSDFVVFGGGTKLTVL
- binding result [1]: binds

B3: EZ 11A (antibody, V domains shown)
VH: EVQLVESGGGLVQPGGSLRLSCAASGFTFSSYWMSWVRQAPGKGLEWVANIKQDGSEKYYVDSVKGRFTISRDNAKNSLYLQMNSLRAEDTAVYYCARDDYSGSYYWEFDYWGQGTLVTVSS
VL: QPVLTQSPSASASLGASVKLTCTLSSGHSSYAIAWHQQQPEKGPRYLMKLNSDGSHSKGDGIPDRFSGSSSGAERYLTISSLQSEDEADYYCQTWGTGIWVFGGGTKLTVL
- binding result [1]: binds

B4: FM 7B (antibody, V domains shown)
VH: EVQLVQSGAEVKKPGASVKVSCKASGYTFTSYAMHWVRQAPGQRLEWMGWINTGNGNTKYSQKFQGRVTITRDTSASTAYMELSSLRSEDTAVYYCARDPTYCSSTSCYPFSWFDPWGQGTLVTVSS
VL: NFMLTQPPSVSVAPGQTARITCGGNNIGSKSVHWYQQKPGQAPVLVVYDDSDRPSGIPERFSGSNSGNTATLTISRVEAGDEADYYCQVWDSTGDHSWVFGGGTKLTVL
- binding result [2]: no binding
- binding result [3]: no binding
- binding result [4]: no binding
- binding result (SARS spike S1 subunit): binds

B5: FN 12A (antibody, V domains shown)
VH: QVQLVQSGAEVKKPGSSVKVSCKASGGTFSSYAISWVRQAPGQGLEWMGRIIPILGIANYAQKFQGRVTITADKSTSTAYMELSSLRSEDTAVYYCARSGCSSTSCPSNLYYYYYGMDVWGQGTTVTVSS
VL: QSVLTQPPSVSAAPGQKVTISCSGSSSNIGNNYVSWYQQLPGTAPKLLIYDNNKRPSGIPDRFSGSKSGTSATLGITGLQTGDEADYYCGTWDSSLSALVFGGGTKLTVL
- binding result [2]: binds
- binding result [3]: binds
- binding result [4]: no binding
- binding result (SARS spike S1 subunit): binds

B6: EZ 9C (antibody, V domains shown)
VH: EVQLVESGGGLVQPGGSLRLSCSASGFTLNGYAMHWVRQAPGKGLEYVSSLSNRGDNTRYAESVKGRFLISRDIAKDTLYLQMSSLRPEDTAVYYCGKGLLSASGGLPIDDWGQGTLVTVSS
VL: B5 VL with L40F, D86A, G90A, L99G, T105A
- binding result [1]: binds

B7: EZ 11C (antibody, V domains shown)
VH: EVQLVESGAEVKKPGASVKVSCKVSGYTLTELSMHWVRQAPGKGLEWMGGFDPEDGETIYAQKFQGRVTMTEDTSTDTAYMELSSLRSEDTAVYYCATTTVTTPTANWFDPWGQGTLVTVSS
VL: B5 VL with V3A, D51E, S97R, A98Q, L99V
- binding result [1]: binds

B8: EW 10C (antibody, V domains shown)
VH: EVQLVESGGGLVQPGGSLRLSCAASGFTFNKYKMTWVRQAPGKGLEWVANIKEDGSEKNYVDSVKGRFTISRDNARNSVYMHLNNLRVEDTAVYYCARGRTLGDWGQGTTVTVSS
VL: AIRMTQSPLSLPVTLGQPASISCRSSQSLVHSDGNTYLNWFQQRPGQSPRRLIYKVSNRDSGAPDRFSGSGSGTDFTLKISRVEAEDVGVYYCMQGTHWPPITFGPGTKVDIK
- binding result [1]: binds

B9: EW 5A (antibody, V domains shown)
VH: EVQLVESGGGLVQPGGSLRLSCSVSGFPFGTYAMHWVRQAPGKGLDYVSAINNDGSITYYADSVRGRFTVSRDNSENTLYLRLSGLRPDDTAIYYCVKDRGSVIRDFDVWGRGTLVTVSS
VL: QTVVTQEPSLTVSPGGTVTLTCASSTGTVTSDYYPNWFQQKPGQAPRPLIFGTAYRHSWTPARFSGSLLGGKAALTVSDVQPEDEADYYCLLYCGGGQLFGGGTKLTVL
- binding result [1]: binds

B10: EZ 9A (antibody, V domains shown)
VH: EVQLVESGGGLVQPGESLRVSCAASGFTFSNYWMHWVRQVPGKGPVWVSIINTDGSITRYVDSVRGRFTISRDNAKNTVHLQMNSLTAEDTAIYYCARDVNRYPDYWGQGTLVTVSS
VL: QSALTQPASVSGSPGQSITISCTGTYSDVGYYNYVSWYQQQPGKAPKVIIHGDINRPFGVSNRFSGSKSGNTASLTISGLQAEDEADYFCCSYVNNGAWVFGGGTKLTVL
- binding result [1]: binds

B11: EY 9C (antibody, V domains shown)
VH: EVQLVESGGGLVKPGGSLRLSCAASEFTFSSYTLNWVRQAPGKGLEWVSSISTSSAYIYYADSVKGRFTISRDNAKKSLSLQMNSLTAEDTAVYYCATWGGAPFDYWGQGTMVTVS
VL: QSVLTQPASVSGSPGRSITISCTETSSDVGTYNLVSWYQQHPGKAPKLMIFDDNKRPSGVSNRFSGSKSGNTASLTISGLQAEDEADYYCCSYAGGRTFNVLFGGGTKLTVL
- binding result [1]: binds

B12: EZ 8C (antibody, V domains shown)
VH: EVQLVESGGGLVKPGGSLRLSCAASGFTFSSYTMNWVRQAPGKGLEWVSSFIANSDYKFYADSVKGRFTISRDNAKSSLYLQMNSLRAEDTAVYYCARELTSYGSHDAFDIWGQGTMVTVSS
VL: QSALTQPASVSGSPGQSITISCTGTSSDVGGYNYVSWYQQHPGKAPKLLIYEVTNRPSGVSDRFSGSKSANVASLTISGLQAEDEADYYCSSYTTTDSVVFGGGTKLTVL
- binding result [1]: binds

B13: EW 9A (antibody, V domains shown)
VH: EVQLLESGGGVVQPGRSLRLSCAASGFTFSSYGMHWVRQAPGKGLEWVAVIWYDGSNKYYADSVKGRFTISRDNSKNTLYLQMNSLRAEDTAVYYCAKDMWALYDILTGYYTPYYYYGMDVWGQGTTVTVSS
VL: SYELTQPPSVSVSPGQTARITCSADALPKQYAYWYQQKPGQAPVLVIYKDSERPSGIPERFSGSSSGTTVTLTISGVQAEDEADYYCQSADSSGTYWVFGGGTKLTVL
- binding result [1]: binds

B14: EZ 7A (antibody, V domains shown)
VH: EVQLVESGAEVKKPGESLKISCKGSGYSFTSYWIGWVRQMPGKGLEWMGIIYPGDSDTRYSPSFQGQVTISADKSISTAYLQWSSLKASDTAMYYCARGWVYRGFPYYGMDVWGQGTMVTVSS
VL: QSALTQPRSVSGSPGQSVTISCTGTSSDVGGYNYVSWYQQHPGKAPKLMIYDVSKRPSGVPDRFSGSKSGNTASLTISGLQAEDEADYYCCSYAGSYTLVFGGGTKLTVL
- binding result [2]: binds
- binding result [4]: no binding
- binding result (SARS spike S1 subunit): binds

B15: FI 4A (antibody, V domains shown)
VH: EVQLVESGGGLVKPGGSLRLSCAASGFTFSRFSMNWVRQAPGKGLEWVSSISSSGSYIYFADSVKGRFTISRDNAKNSLYLQMNSLRAEDTAIYYCATYLFGDSHTYWGQGTLVTVSS
VL: QSVLTQPHSVSESPGKTVTISCTGSSGSIASNYVQWYQQRPGSAPTTVIYEDNQRPSGVPDRFSGSIDSSSNSASLTISGLKTEDEADYYCQSYDSSNLHWVFGGGTKLTVL
- binding result [2]: no binding
- binding result [3]: no binding
- binding result [4]: no binding
- binding result (SARS spike S1 subunit): no binding

B16: FJ 10B (antibody, V domains shown)
VH: QVQLVQSGAEVKKPGESLRISCKGSGYSFTSYWISWVRQMPGKGLEWMGRIDPSDSYTNYSPSFQGHVTISADKSISTAYLQWSSLKASDTAMYYCARLDPRYGPDYYGMDVWGQGTTVTVSS
VL: AIRMTQSPSSLSASVGDRVTITCRASQSISSYLNWYQQKPGKAPKLLIHAASSLQSGVPSRFSGSGSGTDFTLTMSSLQPEDFATYYCQQSYSTPLTFGGGTKVEIR
- binding result [2]: no binding
- binding result [3]: no binding
- binding result [4]: no binding
- binding result (SARS spike S1 subunit): binds

B17: FD 5B (antibody, V domains shown)
VH: not shown
VL: QSVLTQPPSASGSPGQSVTISCTGTSSDAGGYNYVSWYQQHPGKAPKLMIYEVSKRPSGVPDRFSGSKSGNTASLTVSGLQAEDEADYYCSSYAGSNNPFVFGTGTKVTVL
- binding result [1]: binds

B18: EZ 9B (antibody, V domains shown)
VH: not shown
VL: SYELTQPPSVSVAPGQTARITCGGNNIGSKSVHWYQQKPGQAPVLVVYDDSDRPSGIPERFSGSNSGNTATLTISRVEAGDEADYYCQVWDSSSDHPSWVFGGGTKLTVL
- binding result [1]: binds

B19: EY 12B (antibody, V domains shown)
VH: EVQLVESGGDLVQPGRSLRLSCAASGFTFDYFAMHWVRQVPGKGLEWVSGIRWNSETIGYADSVKGRFTISRDNAKKSLYLEMNSLRSEDTAFYYCAKGRSGYGHTAFDVWGQGTMVTVSS
VL: QSALTQPPSVSGAPGQRVTISCTGSSSNIGANYDVHWYQRLPGTAPKLLIYDNNNRPSGVPDRFSGSKSGTSASLAIAGLQAEDEADYYCQSYDSSLSASVFGGGTKLTVL
- binding result [1]: binds

B20: EW 1A (antibody, V domains shown)
VH: EVQLVESGGGVVQPGSSLRLSCETSGFTFSGHAMHWVRQAPGKGLEWLAQIWFDGSEKYYADSVKGRFTISRDNSKKILYMQMNSLRVQDTAVYYCARDGQHLAPFAMDVWGQGTMVTVSS
VL: QSVLTQPASVSGSPGQSITISCTGTSSDVGASNRVSWYQHSPGEAPKLIIYQVTVRPSGVSDRFSGSKSGNTASLTISGLRTEDEAEYYCNSFVSGDSWVFGGGTKVTVL
- binding result [1]: binds
